Test results reported in US20030032072A1, “Method for the assessment of allergenicity” (Novozymes A/S, priority 1999, published 2003).

B1: lipase: triacylglycerol acylhydrolase (lipase) E.C. 3.1.1.3 from Humicola lanuginosa (protein, UniProt O59952 23-291, looked up)
Lipase: EVSQDLFNQFNLFAQYSAAAYCGKNNDAPAGTNITCTGNACPEVEKADATFLYSFEDSGVGDVTGFLALDNTNKLIVLSFRGSRSIENWIGNLNFDLKEINDICSGCRGHDGFTSSWRSVADTLRQKVEDAVREHPDYRVVFTGHSLGGALATVAGADLRGNGYDIDVFSYGAPRVGNRAFAEFLTVQTGGTLYRITHTNDIVPRLPPREFGYSHSSPEYWIKSGTLVPVTRNDIVKIEGIDATGGNNQPNIPDIPAHLWYFGLIGTCL

Experiments:
[1] = system: Human lung epithelial cells (BEAS-2B, ATCC # CRL-9609); test: Bioassay: extracellular cytokine expression of epithelial cells, assessed by ELISA; format: cell-based
Description: Human lung epithelial cells (BEAS-2B, ATCC # CRL-9609) were inoculated in a culture flask (NUNC), precoated with 2% (vol/vol) Ultroser G in water, at 1500 to 3000 cells per cm^2, and were grown at 37° C. in LHC-9 medium containing 2% (vol/vol) Ultroser G and 5% CO2.
The cells were subcultured before reaching confluence. The medium was removed, and fresh 0.5% polyvinylpyrrolidone (PVP) in trypin (0.25% (wt/vol))-EDTA (0.03% (wt/vol)) solution was added until cells detached (usually after 5-10 minutes at room temperature). LHC-9 medium was added, and cells were collected by centrifugation (300× g for 15 minutes), and resuspended in LHC-9 medium containing 2% (vol/vol) Ultroser G. Finally, cells were dispensed into precoated flasks (NUNC) at a density of 1500 to 3000 cells per cm^2.
When enough cells were available to perform the planned number of assays, cells were trypinated, and were transferred to a 24-well culture plate (NUNC) (1×10^5 cells per well). Incubation was for 24 hours at 37° C. in LHC-9 medium containing 2% (vol/vol) Ultroser G and 5% CO2. […]
The extracellular expression of selected cytokines was assessed by ELISA (R&D Systems), as a function of incubation time and protein concentration. […] A calibration curve was included each time, to include quantification of the detected cytokine levels, as well as to assess assay reproducibility.

Brown Norway rats = test: Intratracheal immunization of Brown Norway rats, IgE ELISA; format: in vivo, rat; details: rats immunized intratracheally, IgE detected by ELISA, Example 5
Description: Twenty intratracheal immunizations were performed weekly with 100 microliters 0.9% (wt/vol) NaCl (control group), or 100 microliters of the protein dilution mentioned before. Each group contained 10 rats. Blood samples (2 ml) were collected from the eye one week after every second immunization. Serum was obtained by blood clothing, and centrifugation.
The IgE ELISA was performed by using the following: Buffers and Solutions:
Mouse anti-Rat IgE was diluted 200×in PBS (5 micrograms/ml). 100 microliters were added to each well. The plates were coated overnight at 4° C.
Unspecific adsorption was blocked by incubating each well for 1 hour at room temperature with 200 microliters blocking buffer. The plates were washed 3×with 300 microliters washing buffer.
Unknown rat sera and a known rat IgE solution were diluted in dilution buffer: Typically 10×, 20×and 40×for the unknown sera, and ½ dilutions for the standard IgE starting from 1 microgram/ml. 100 microliters were added to each well. […]
The reaction was stopped by adding 100 microliters H2SO4. The plates were read at 492 nm with 620 nm as reference.
Rats were immunized intratracheally with unmodified and modified protease, and the protease specific IgE levels were detected by ELISA. The IgE levels detected throughout the study were integrated, and compared relative to the levels observed in rats immunized with unmodified enzyme.

| Molecule | effect on cytokine production ([1]; PMSF (10 mM) and its hydrolysis products, diluted about 1000× before being applied on the cells) | IgE level in rats (Brown Norway rats) | level of all cytokines (normalized cytokine levels, FIG. 5) ([1]; epithelial cell assay, Example 5) |
| --- | --- | --- | --- |
| O=S(=O)(F)Cc1ccccc1 [PMSF, reference compound] | no detectable effect | – | – |
| B1 | – | significantly lower IgE level | high level |
